B1: Full-length BCAP, BCAPL (1–805) (natural protein, human, UniProt Q6ZUJ8-1 1-805, looked up)
chain: MAASGVPRGCDILIVYSPDAEEWCQYLQTLFLSSRQVRSQKILTHRLGPEASFSAEDLSLFLSTRCVVVLLSAELVQHFHKPALLPLLQRAFHPPHRVVRLLCGVRDSEEFLDFFPDWAHWQELTCDDEPETYVAAVKKAISEDSGCDSVTDTEPEDEKVVSYSKQQNLPTVTSPGNLMVVQPDRIRCGAETTVYVIVRCKLDDRVATEAEFSPEDSPSVRMEAKVENEYTISVKAPNLSSGNVSLKIYSGDLVVCETVISYYTDMEEIGNLLSNAANPVEFMCQAFKIVPYNTETLDKLLTESLKNNIPASGLHLFGINQLEEEDMMTNQRDEELPTLLHFAAKYGLKNLTALLLTCPGALQAYSVANKHGHYPNTIAEKHGFRDLRQFIDEYVETVDMLKSHIKEELMHGEEADAVYESMAHLSTDLLMKCSLNPGCDEDLYESMAAFVPAATEDLYVEMLQASTSNPIPGDGFSRATKDSMIRKFLEGNSMGMTNLERDQCHLGQEEDVYHTVDDDEAFSVDLASRPPVPVPRPETTAPGAHQLPDNEPYIFKVFAEKSQERPGNFYVSSESIRKGPPVRPWRDRPQSSIYDPFAGMKTPGQRQLITLQEQVKLGIVNVDEAVLHFKEWQLNQKKRSESFRFQQENLKRLRDSITRRQREKQKSGKQTDLEITVPIRHSQHLPAKVEFGVYESGPRKSVIPPRTELRRGDWKTDSTSSTASSTSNRSSTRSLLSVSSGMEGDNEDNEVPEVTRSRSPGPPQVDGTPTMSLERPPRVPPRAASQRPPTRETFHPPPPVPPRGR
notes: B-cell adaptor for phosphoinositide 3-kinase (BCAP), human, full-length form BCAPL, residues 1-805; Cloned into the same vector as the His6-tagged TIR domain; source: cloned into pMCSG7, purified (StrepTrap, S200 size exclusion)
B2: BCAP330, the first 330 residues of BCAPL (domain or fragment, human, UniProt Q6ZUJ8-1 1-330, looked up)
chain: MAASGVPRGCDILIVYSPDAEEWCQYLQTLFLSSRQVRSQKILTHRLGPEASFSAEDLSLFLSTRCVVVLLSAELVQHFHKPALLPLLQRAFHPPHRVVRLLCGVRDSEEFLDFFPDWAHWQELTCDDEPETYVAAVKKAISEDSGCDSVTDTEPEDEKVVSYSKQQNLPTVTSPGNLMVVQPDRIRCGAETTVYVIVRCKLDDRVATEAEFSPEDSPSVRMEAKVENEYTISVKAPNLSSGNVSLKIYSGDLVVCETVISYYTDMEEIGNLLSNAANPVEFMCQAFKIVPYNTETLDKLLTESLKNNIPASGLHLFGINQLEEEDMMTN
notes: B-cell adaptor for phosphoinositide 3-kinase (BCAP), human, the N-terminal 330 residues (TIR and DBB domains); also called N-terminal variant; source: cloned into pMCSG7, purified (StrepTrap, S200 size exclusion)
B3: BCAPS, splice variant of BCAP (natural protein, human, UniProt Q6ZUJ8-2 1-627, looked up)
chain: MVVQPDRIRCGAETTVYVIVRCKLDDRVATEAEFSPEDSPSVRMEAKVENEYTISVKAPNLSSGNVSLKIYSGDLVVCETVISYYTDMEEIGNLLSNAANPVEFMCQAFKIVPYNTETLDKLLTESLKNNIPASGLHLFGINQLEEEDMMTNQRDEELPTLLHFAAKYGLKNLTALLLTCPGALQAYSVANKHGHYPNTIAEKHGFRDLRQFIDEYVETVDMLKSHIKEELMHGEEADAVYESMAHLSTDLLMKCSLNPGCDEDLYESMAAFVPAATEDLYVEMLQASTSNPIPGDGFSRATKDSMIRKFLEGNSMGMTNLERDQCHLGQEEDVYHTVDDDEAFSVDLASRPPVPVPRPETTAPGAHQLPDNEPYIFKVFAEKSQERPGNFYVSSESIRKGPPVRPWRDRPQSSIYDPFAGMKTPGQRQLITLQEQVKLGIVNVDEAVLHFKEWQLNQKKRSESFRFQQENLKRLRDSITRRQREKQKSGKQTDLEITVPIRHSQHLPAKVEFGVYESGPRKSVIPPRTELRRGDWKTDSTSSTASSTSNRSSTRSLLSVSSGMEGDNEDNEVPEVTRSRSPGPPQVDGTPTMSLERPPRVPPRAASQRPPTRETFHPPPPVPPRGR
notes: The first residue is worked out from the legend's words 'lacks the first 180 amino acids'; source: cloned into pMCSG7, purified (StrepTrap, S200 size exclusion)

Biological target: the molecule itself
Assay: AUC; sedimentation velocity, Beckman XL-A, 0.3 to 1 mg/ml, 30,000–40,000 rpm, c(S) and c(M) analysis with SEDFIT

Protein | stoichiometry N
B1 | 2
B2 | 2
B3 | 2

Source: paper PMC5241739, “Structure of the Toll/Interleukin-1 Receptor (TIR) Domain of the B-cell Adaptor That Links Phosphoinositide Metabolism with the Negative Regulation of the Toll-like Receptor (TLR) Signalosome*^([image sbox.jpg])” (The Journal of Biological Chemistry, 2016)
